In paper doi:10.1101/2021.05.25.445488 (bioRxiv, 2021):

T1: GST-TULP3 full length (human, UniProt O75386-1 1-442)
T1 sequence (looked up): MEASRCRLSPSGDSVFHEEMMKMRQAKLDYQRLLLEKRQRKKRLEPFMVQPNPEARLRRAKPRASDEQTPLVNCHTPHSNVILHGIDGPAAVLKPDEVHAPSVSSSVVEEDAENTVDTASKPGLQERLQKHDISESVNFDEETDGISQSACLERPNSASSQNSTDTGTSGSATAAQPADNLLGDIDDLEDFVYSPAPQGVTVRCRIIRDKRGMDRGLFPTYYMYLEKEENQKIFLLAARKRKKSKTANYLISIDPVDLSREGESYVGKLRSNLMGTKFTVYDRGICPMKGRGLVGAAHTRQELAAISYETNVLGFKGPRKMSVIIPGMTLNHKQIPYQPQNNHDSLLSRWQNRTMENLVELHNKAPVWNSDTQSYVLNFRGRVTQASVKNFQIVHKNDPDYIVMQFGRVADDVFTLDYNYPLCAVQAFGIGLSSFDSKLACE


Target: T1, GST-TULP3 full length
Test: pull-down

Binder | binding result
GFP-ARL13B N-terminus (1-298 aa), insect cell purified (domain or fragment, human, UniProt Q3SXY8-1 1-298, looked up) MFSLMASCCGWFKRWREPVRKVTLLMVGLDNAGKTATAKGIQGEYPEDVAPTVGFSKINLRQGKFEVTIFDLGGGIRIRGIWKNYYAESYGVIFVVDSSDEERMEETKEAMSEMLRHPRISGKPILVLANKQDKEGALGEADVIECLSLEKLVNEHKCLCQIEPCSAISGYGKKIDKSIKKGLYWLLHVIARDFDALNERIQKETTEQRALEEQEKQERAERVRKLREERKQNEQEQAELDGTSGLAELDPEPTNPFQPIASVIIENEGKLEREKKNQKMEKDSDGCHLKHKMEHEQI | binds
GFP-ARL13B full length, insect cell purified (natural protein) not shown | binds
